{
  "source": "paper PMC3929396",
  "origin": "cited, not measured here",
  "target": "CCR5 (Homo sapiens) (UniProt P51681)",
  "sequence (P51681 whole entry)": "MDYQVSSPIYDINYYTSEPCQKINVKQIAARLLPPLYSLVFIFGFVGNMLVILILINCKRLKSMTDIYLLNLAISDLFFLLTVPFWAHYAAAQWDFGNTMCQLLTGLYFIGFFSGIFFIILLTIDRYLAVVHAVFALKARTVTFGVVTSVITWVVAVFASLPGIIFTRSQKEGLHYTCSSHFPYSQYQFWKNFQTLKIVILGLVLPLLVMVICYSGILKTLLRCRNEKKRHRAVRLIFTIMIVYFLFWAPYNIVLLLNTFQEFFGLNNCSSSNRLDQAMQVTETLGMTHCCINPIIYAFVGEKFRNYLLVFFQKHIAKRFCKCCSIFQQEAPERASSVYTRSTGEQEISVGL",
  "test": "SPR",
  "data": [
    {"substance": "LukE (from UniProt O54081)", "values": [
      {"measurement": "Kd", "value": 39.6, "unit": "nM"}
    ]}
  ]
}
